Assay results as given in the supplement of paper PMC9112550, “Optimization of the antimicrobial peptide Bac7 by deep mutational scanning” (BMC Biology, 2022).

Tested on: Escherichia coli TOP10
Experiment: shrunken log2 fold change of peptide-encoding DNA abundance (4.5 h post-induction vs induction); higher = less antimicrobial activity (less host growth inhibition)
Settings: time post-induction: 4.5 h; library: site-saturation at positions 5, 18, 19, 20
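Further: peptides expressed intracellularly from a pBAD plasmid library in pooled LB shake-flask culture, induced with 0.3% L-arabinose, DNA abundance read by NGS, three biological replicates, DESeq2 with apeglm shrinkage.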

Sequence | shrunken log2 fold change
RRIRKRPPRLPRPRPRPKAGPRP | 0.504
RRIRFRPPRLPRPRPRPMRMPRP | -0.0248
RRIRVRPPRLPRPRPRPFLCPRP | -0.0159
RRIRSRPPRLPRPRPRPDHCPRP | -0.0225
RRIRDRPPRLPRPRPRPWGKPRP | -0.194
RRIRFRPPRLPRPRPRPLPSPRP | 0.0283
RRIRIRPPRLPRPRPRPWWSPRP | -0.0718
RRIRCRPPRLPRPRPRPVKTPRP | -0.132
RRIRKRPPRLPRPRPRPPCAPRP | 0.804
RRIRTRPPRLPRPRPRPKVKPRP | 0.00985
RRIRARPPRLPRPRPRPKLLPRP | 0.00678
RRIRSRPPRLPRPRPRPNQSPRP | -0.0432
RRIRLRPPRLPRPRPRPKVWPRP | 0.0698
RRIRQRPPRLPRPRPRPNPCPRP | -0.349
RRIRYRPPRLPRPRPRPKCIPRP | -0.154
RRIRYRPPRLPRPRPRPGVWPRP | 0.171
RRIRSRPPRLPRPRPRPSFHPRP | -0.542
RRIRSRPPRLPRPRPRPMIVPRP | -0.377
RRIRDRPPRLPRPRPRPIWCPRP | -0.0176
RRIRMRPPRLPRPRPRPPDAPRP | 1.53
RRIRSRPPRLPRPRPRPWCTPRP | -0.255
RRIRYRPPRLPRPRPRPQQTPRP | 0.019
RRIRTRPPRLPRPRPRPESCPRP | 0.145
RRIRDRPPRLPRPRPRPLSVPRP | -0.0465
RRIRWRPPRLPRPRPRPVNMPRP | -0.101

Sequence | shrunken log2 fold change
RRIRRRPPRLPRPRPRPPYCPRP | 0.256
RRIRLRPPRLPRPRPRPVRQPRP | 0.569
RRIRERPPRLPRPRPRPKQYPRP | -0.292
RRIRGRPPRLPRPRPRPRWTPRP | 0.43
RRIRARPPRLPRPRPRPMQPPRP | 0.369
RRIRVRPPRLPRPRPRPALVPRP | 0.464
RRIRLRPPRLPRPRPRPKHSPRP | -0.107
RRIRVRPPRLPRPRPRPFHRPRP | -0.0437
RRIRQRPPRLPRPRPRPTDAPRP | 0.0862
RRIRWRPPRLPRPRPRPFIYPRP | -0.467
RRIRYRPPRLPRPRPRPRPWPRP | 0.332
RRIRVRPPRLPRPRPRPVIPPRP | -0.0964
RRIRARPPRLPRPRPRPGHAPRP | 0.16
RRIRKRPPRLPRPRPRPLLIPRP | -0.11
RRIRFRPPRLPRPRPRPFWKPRP | -0.0963
RRIRSRPPRLPRPRPRPAWYPRP | -0.3
RRIRPRPPRLPRPRPRPWVLPRP | -0.0962
RRIRVRPPRLPRPRPRPETKPRP | 0.242
RRIRARPPRLPRPRPRPNPHPRP | 0.0863
RRIRARPPRLPRPRPRPSMGPRP | -0.0314
RRIRCRPPRLPRPRPRPTFAPRP | 0.359
RRIRLRPPRLPRPRPRPEYHPRP | 0.0779
RRIRFRPPRLPRPRPRPAFMPRP | -0.164
RRIRRRPPRLPRPRPRPKAQPRP | -0.00801
RRIRYRPPRLPRPRPRPMVLPRP | -0.0934

Sequence | shrunken log2 fold change
RRIRERPPRLPRPRPRPTRDPRP | 0.245
RRIRPRPPRLPRPRPRPCVEPRP | 0.021
RRIRLRPPRLPRPRPRPHHRPRP | -0.263
RRIRCRPPRLPRPRPRPACMPRP | -0.162
RRIRARPPRLPRPRPRPWEDPRP | -0.015
RRIRDRPPRLPRPRPRPQSMPRP | 0.0598
RRIRNRPPRLPRPRPRPLCGPRP | -0.13
RRIRPRPPRLPRPRPRPKHKPRP | -0.0938
RRIRKRPPRLPRPRPRPSDRPRP | 0.0691
RRIRLRPPRLPRPRPRPYKIPRP | -0.0766
RRIRPRPPRLPRPRPRPNSLPRP | -0.272
RRIRRRPPRLPRPRPRPGPNPRP | 0.251
RRIRFRPPRLPRPRPRPKQNPRP | 0.249
RRIRGRPPRLPRPRPRPGYNPRP | 0.0217
RRIRLRPPRLPRPRPRPGGRPRP | -0.0451
RRIRIRPPRLPRPRPRPHGYPRP | -0.714
RRIRWRPPRLPRPRPRPFMKPRP | -0.128
RRIRIRPPRLPRPRPRPETMPRP | -0.108
RRIRKRPPRLPRPRPRPDILPRP | 0.0039
RRIRERPPRLPRPRPRPCTQPRP | -0.00926
RRIRLRPPRLPRPRPRPKDCPRP | -0.495
RRIRKRPPRLPRPRPRPRSMPRP | -0.164
RRIRQRPPRLPRPRPRPGRWPRP | 0.446
RRIRWRPPRLPRPRPRPGRAPRP | 0.71
RRIRDRPPRLPRPRPRPQCWPRP | 0.0162
